# Data reported in publication PMC4749439 (Cell metabolism, 2015).
# No end group written: not given here.
# T1: S^35-HSC20 (UniProt Q8IWL3 1-235, S^35 label)
# T1 sequence (looked up): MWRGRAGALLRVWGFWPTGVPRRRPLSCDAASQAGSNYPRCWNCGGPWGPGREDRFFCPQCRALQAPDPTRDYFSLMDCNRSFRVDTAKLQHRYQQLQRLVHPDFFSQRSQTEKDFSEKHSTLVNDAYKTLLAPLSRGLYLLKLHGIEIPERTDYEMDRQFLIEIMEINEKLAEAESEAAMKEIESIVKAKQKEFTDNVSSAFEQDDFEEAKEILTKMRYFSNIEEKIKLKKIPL
# T2: S^35-SDHB (human, UniProt P21912 1-280, S^35 label)
# T2 sequence (looked up): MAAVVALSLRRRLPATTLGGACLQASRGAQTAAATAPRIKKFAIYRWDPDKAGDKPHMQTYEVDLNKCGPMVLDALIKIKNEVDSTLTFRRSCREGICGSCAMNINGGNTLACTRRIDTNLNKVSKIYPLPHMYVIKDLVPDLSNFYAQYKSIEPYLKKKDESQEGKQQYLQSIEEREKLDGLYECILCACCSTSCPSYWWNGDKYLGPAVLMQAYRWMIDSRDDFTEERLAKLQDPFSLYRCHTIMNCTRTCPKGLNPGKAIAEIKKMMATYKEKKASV
# B1: SDHAF1 clone 4 (residues 50–115) (domain or fragment, human, UniProt A6NFY7 50-115, looked up)
# chain: IEYLYRRGRRQLQLLRSGHATAMGAFVRPRAPTGEPGGVGCQPDDGDSPRNPHDSTGAPETRPDGR
# modifications: also: 35S label
# B2: SDHB146-218 (domain or fragment, human, UniProt P21912 146-218, looked up)
# chain: FYAQYKSIEPYLKKKDESQEGKQQYLQSIEEREKLDGLYECILCACCSTSCPSYWWNGDKYLGPAVLMQAYRW
# B3: S^35-labeled FLAG-tagged SDHAF1 wild type (in vitro) (natural protein, human, UniProt A6NFY7 1-115, looked up)
# chain: MSRHSRLQRQVLSLYRDLLRAGRGKPGAEARVRAEFRQHAGLPRSDVLRIEYLYRRGRRQLQLLRSGHATAMGAFVRPRAPTGEPGGVGCQPDDGDSPRNPHDSTGAPETRPDGR
# modifications: S^35 label
# B4: SDHAF1 G57R (in vitro) (natural protein, human, UniProt A6NFY7 1-115, looked up)
# chain: MSRHSRLQRQVLSLYRDLLRAGRGKPGAEARVRAEFRQHAGLPRSDVLRIEYLYRRRRRQLQLLRSGHATAMGAFVRPRAPTGEPGGVGCQPDDGDSPRNPHDSTGAPETRPDGR
# modifications: S^35 label
# B5: SDHAF1 second LYR to triple alanines (in vitro) (natural protein, human, UniProt A6NFY7 1-115, looked up)
# chain: MSRHSRLQRQVLSLYRDLLRAGRGKPGAEARVRAEFRQHAGLPRSDVLRIEYAAARGRRQLQLLRSGHATAMGAFVRPRAPTGEPGGVGCQPDDGDSPRNPHDSTGAPETRPDGR
# modifications: S^35 label
# B6: SDHAF1 clone 5 (residues 61–115) (domain or fragment, human, UniProt A6NFY7 61-115, looked up)
# chain: LQLLRSGHATAMGAFVRPRAPTGEPGGVGCQPDDGDSPRNPHDSTGAPETRPDGR
# modifications: also: 35S label
# B7: SDHAF1 clone 2 (residues 40–115) (domain or fragment, human, UniProt A6NFY7 40-115, looked up)
# chain: AGLPRSDVLRIEYLYRRGRRQLQLLRSGHATAMGAFVRPRAPTGEPGGVGCQPDDGDSPRNPHDSTGAPETRPDGR
# modifications: S^35 label
# Legend:
# Assay in all cases: pull-down
# [1] = target: T1, S^35-HSC20
# [2] = target: T2, S^35-SDHB
# [3] = target: B3
Binder,binding result [1],binding result [2],other results
"MSRHSRLQRQVLSLYRDLLRAGRGKPGAEARVRAEFRQH (domain or fragment, human, UniProt A6NFY7 1-39, looked up, also: 35S label) [SDHAF1 clone 1 (residues 1–39)]",binds,–,–
"MSRHSRLQRQVLSLYRDLLRAGRGKPGAEARVRAE (domain or fragment, human, UniProt A6NFY7 1-35, looked up, also: 35S label) [SDHAF1 clone 3 (residues 1–35)]",binds,–,–
B1,–,binds,–
B2,–,–,binding result [3]: binds
B3,binds,–,–
B4,binds,–,–
B5,binds,–,–
B6,–,binds,–
B7,–,binds,–
